Experimental data as given in patent US20060257938A1, “Method of screening for drugs that block ligand binding to a lipid binding protein” (priority 2005, published 2006).
Substitutions are numbered along the chain they refer to. Where “and” joins values, the source holds several entries; their conditions need not be identical. Equal values may be shown once.

B1: 117E, 72A (protein, listed as Rattus norvegicus)
chain: AFDGTWKVDRNENYEKFMEKMGINVVKRKLGAHDNLKLTITQEGNKFTVKESSNFRNIDVVFELGVDFAYSAADGTELTGTWTMEGNKLVGKFKRVDNGKELIAVREISGNELIQTETYEGVEAKRIFKKE
modifications: PEPTIDE (1)...(131) wild-type rat intestinal fatty acid binding protein
B2: 74F, 72A (protein, listed as Rattus norvegicus)
chain: B1 chain with D74F, E117Y
modifications: PEPTIDE (1)...(131) wild-type rat intestinal fatty acid binding protein
B3: 117I, 72A (protein, listed as Rattus norvegicus)
chain: B1 chain with E117I
modifications: PEPTIDE (1)...(131) wild-type rat intestinal fatty acid binding protein
B4: 117G, 72A (protein, listed as Rattus norvegicus)
chain: B1 chain with E117G
modifications: PEPTIDE (1)...(131) wild-type rat intestinal fatty acid binding protein
B5: 117K, 72A (protein, listed as Rattus norvegicus)
chain: B1 chain with E117K
modifications: PEPTIDE (1)...(131) wild-type rat intestinal fatty acid binding protein
B6: 117H, 72A (protein, listed as Rattus norvegicus)
chain: B1 chain with E117H
modifications: PEPTIDE (1)...(131) wild-type rat intestinal fatty acid binding protein
B7: 117F, 72A (protein, listed as Rattus norvegicus)
chain: B1 chain with E117F
modifications: PEPTIDE (1)...(131) wild-type rat intestinal fatty acid binding protein
B8: 117L, 72A (protein, listed as Rattus norvegicus)
chain: B1 chain with E117L
modifications: PEPTIDE (1)...(131) wild-type rat intestinal fatty acid binding protein

assay: Probe fluorescence ratio response to palmitic acid relative to ADIFAB2; format: binding; conditions: response relative to ADIFAB2
Text: (§1) In an alternate preferred embodiment, the protein is rI-FABP that has Ala substituted for Leu at position 72 (rI-FABP-L72A) with the resulting probe named ADIFAB2. […] Other probes useful in embodiments of the invention are shown in Tables 1-6 and are also described in U.S. application Ser. No. 11/085,792, filed Mar. 21, 2005 which is incorporated herein by reference. The indicated substitutions are with reference to the ADIFAB protein of SEQ ID NO: 2.
(§2) ADIFAB2 also has an altered spectral response, making it especially useful for measurements of FFAu in blood samples (Apple et al, Clinical Proteomics, (2004) 1:41-44, U.S. patent application Ser. No. 10/670,958). The wavelengths at the maximum intensities emitted by these fluorescently-labeled I-FABP's in the absence of FFA is about 420 to 480 nm. The emission wavelengths at the maximum intensities emitted by these fluorescently-labeled I-FABP's with FFA bound are between about 495 to 580 nm. Experiments typically involve measuring the fluorescence response within both emission maxima or at wavelengths for which the effect of interfering molecules such as hemoglobin can be eliminated as described in U.S. application Ser. No. 10/670958 and PCT/US2004/030521 and the calculation of the ratio ‘R’ of the two fluorescence intensities. The baseline value for this ratio, measured in the absence of analyte, is designated R0.
(§3) The intensity ratio (“R” value) is determined as follows. The ratio is calculated using the following formula: R=Fλ1/Fλ2 wherein, Fλ1 is the measured fluorescence intensities (intensity of sample with probe present minus intensity of sample without probe present) at wavelength 1 and Fλ2 is the measured fluorescence intensities (intensity of sample with probe present minus intensity of sample without probe present) at wavelength 2. Then, for a given probe, ΔR, the difference in R value between the measurement in the presence of the test compound (agent) and in the absence of the test compound (agent), is calculated as follows: ΔR=R+agent−R0 In some embodiments, the ΔR value may then be compared to some reference, for example, an agent with a known affinity for a given probe, by ΔR/ΔRreference. Measurements of fluorescence intensities are obtained using standard techniques.

| Molecule | DR/DR PA |
| --- | --- |
| B1 | 0.40 and 0.402 |
| B2 | 1.23 and 0.93 |
| B3 | 0.41 and 0.408 |
| B4 | 0.39 |
| B5 | 0.22 |
| B6 | 0.63 and 0.659 |
| B7 | 1.20 |
| B8 | 0.29 |

assay: Probe fluorescence ratio response to oleic acid relative to ADIFAB2; format: binding; conditions: response relative to ADIFAB2
Text: as §1, §2, §3

| Molecule | DR/DR OA |
| --- | --- |
| B1 | 0.65 and 0.659 |
| B3 | 0.67 and 0.676 |
| B4 | 0.84 |
| B5 | 0.04 |
| B6 | 1.01 and 1.012 |
| B7 | 1.37 |
| B8 | 0.35 |

assay: Probe fluorescence ratio response to linolenic acid relative to ADIFAB2; format: binding; conditions: response relative to ADIFAB2
Text: as §1, §2, §3

| Molecule | DR/DR LNA |
| --- | --- |
| B1 | 0.64 and 0.638 |
| B2 | 1.36 and 1.04 |
| B3 | 0.68 and 0.666 |
| B4 | 0.85 |
| B5 | 0.37 |
| B6 | 0.94 and 0.924 |
| B7 | 1.38 |
| B8 | 0.39 |

assay: Probe fluorescence ratio response to arachidonic acid relative to ADIFAB2; format: binding; conditions: Arachidonic acid; response relative to ADIFAB2
Text: as §1, §2, §3

| Molecule | DR/DR AA |
| --- | --- |
| B2 | 1.02 |

same assay, conditions: arachidonic acid; response relative to ADIFAB2

| Molecule | DR/DR AA |
| --- | --- |
| B1 | 0.65 and 0.656 |
| B2 | 0.44 |
| B3 | 0.68 and 0.674 |
| B4 | 0.88 |
| B5 | 0.34 |
| B6 | 0.90 and 0.913 |
| B7 | 1.33 |
| B8 | 0.38 |

assay: Probe fluorescence ratio response to linoleic acid relative to ADIFAB2; format: binding; conditions: response relative to ADIFAB2
Text: as §1, §2, §3

| Molecule | DR/DR LA |
| --- | --- |
| B1 | 0.76 and 0.753 |
| B2 | 1.19 and 0.67 |
| B3 | 0.80 and 0.789 |
| B4 | 0.92 |
| B5 | 0.43 |
| B6 | 1.06 and 1.056 |
| B7 | 1.36 |
| B8 | 0.43 |
